Experimental data taken from article PMC7987981, “Molecular characterisation of rare loss-of-function NPAS3 and NPAS4 variants identified in individuals with neurodevelopmental disorders” (Scientific Reports, 2021).

Biological target: T1, NPAS4 170X-Myc/FLAG (c.508C>T nonsense variant) (human, UniProt Q8IUM7-1 1-169)
T1 sequence (looked up): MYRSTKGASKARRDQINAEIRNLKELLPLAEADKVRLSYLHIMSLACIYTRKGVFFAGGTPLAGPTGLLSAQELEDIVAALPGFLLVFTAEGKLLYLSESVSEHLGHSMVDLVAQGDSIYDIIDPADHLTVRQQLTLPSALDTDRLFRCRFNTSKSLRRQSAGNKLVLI
Assay: cell-based or functional assay

B1: ARNT2-Strep (natural protein)
chain: not shown
6xCME firefly luciferase reporter gene activity in HEK293T (dual luciferase; ARNT2-FLAG as partner; printed for ARNT and ARNT2 alike): > 200 fold decrease relative to wildtype
